Test system: NIH3T3 cells
Assay: Wnt conditioned media treatment of NIH3T3 cells, phalloidin actin staining, protrusion/filopodia count
Assay type: cell-based, mouse
Settings: NIH3T3 cells on fibronectin treated cover slips, 15 minutes in conditioned media, Alexa568 phalloidin staining
Protocol: FIG. 1: Wnt treatment increases the protrusive activity of NIH3T3 cells. NIH3T3 cells were plated at low density on fibronectin treated cover slips. After being allowed to re-attach for 12 hours, cells were placed into media that was pre-conditioned either by control 293T cells (A), 293T cells expressing Wnt1 (B) or 293T cells expressing Wnt5a (C and D). After 15 minutes in conditioned media, cells were fixed and stained with Alexa568 conjugated phalloidin to label the actin cyto-skeleton. Wnt treated cells contained higher numbers of actin based protrusions relative to control. These included filopodia (arrows in B and C) as well as membrane ruffles (arrows in D). E. The number of filopodia per cell was counted for NIH3T3 cells treated as described above. […] Columns represent the average number of filopodia per cell. N=50, 80, 76 cells for control, Wnt1 and Wnt5a, respectively. Error bars represent the standard error of the mean for each group shown.
We can use Wnt conditioned media as a source of Wnt polypeptides and fragments of them in testing the ability of a cell to modify its cell motility characteristics. […]
In FIG. 1, we show the […] after the Wnt treatment. […] The degree of motility can be measured through the number of filopodia, for example, or through assyas that measure the levels or increases in cytoskeletal proteins. […]

| Molecule | number of filopodia per cell relative to control |
| --- | --- |
| Wnt1: Wnt polypeptide supplied as media pre-conditioned by 293T cells expressing Wnt1 (mouse Wnt 1 per b63) (protein, UniProt P04426 28-370, looked up, conditioned medium from 293T cells) Proto-oncogene Wnt-1: ANSSGRWWGIVNIASSTNLLTDSKSLQLVLEPSLQLLSRKQRRLIRQNPGILHSVSGGLQSAVRECKWQFRNRRWNCPTAPGPHLFGKIVNRGCRETAFIFAITSAGVTHSVARSCSEGSIESCTCDYRRRGPGGPDWHWGGCSDNIDFGRLFGREFVDSGEKGRDLRFLMNLHNNEAGRTTVFSEMRQECKCHGMSGSCTVRTCWMRLPTLRAVGDVLRDRFDGASRVLYGNRGSNRASRAELLRLEPEDPAHKPPSPHDLVYFEKSPNFCTYSGRLGTAGTAGRACNSSSPALDGCELLCCGRGHRTRTQRVTERCNCTFHWCCHVSCRNCTHTRVLHECL | significant increase |
| Wnt5a: Wnt polypeptide supplied as media pre-conditioned by 293T cells expressing Wnt5a (mouse Wnt 5A per b63) (protein, UniProt P22725 62-380, looked up, conditioned medium from 293T cells) Protein Wnt-5a: IIGAQPLCSQLAGLSQGQKKLCHLYQDHMQYIGEGAKTGIKECQYQFRHRRWNCSTVDNTSVFGRVMQIGSRETAFTYAVSAAGVVNAMSRACREGELSTCGCSRAARPKDLPRDWLWGGCGDNIDYGYRFAKEFVDARERERIHAKGSYESARILMNLHNNEAGRRTVYNLADVACKCHGVSGSCSLKTCWLQLADFRKVGDALKEKYDSAAAMRLNSRGKLVQVNSRFNSPTTQDLVYIDPSPDYCVRNESTGSLGTQGRLCNKTSEGMDGCELMCCGRGYDQFKTVQTERCHCKFHWCCYVKCKKCTEIVDQFVCK | significant increase |

From patent publication US20040072266A1, “Method of modifying cell motility via compounds and polypeptides that interact with a Wnt pathway” (priority 2002, published 2004)
